Source: patent US20250084178A1, “ANTI-CD39 ANTIBODIES AND USE THEREOF” (ARCUS BIOSCIENCES, INC., priority 2022, published 2025)
“Also recorded” adds a separate entry of the source.

Key:
[1] = target: T1, human CD39 (Homo sapiens, UniProt P49961); experiment: Tumor draining lymph node cell surface CD39; type: in vivo, mouse; details: tumor draining lymph nodes, hCD39KI MC38 mice
T1 sequence (P49961 1-510): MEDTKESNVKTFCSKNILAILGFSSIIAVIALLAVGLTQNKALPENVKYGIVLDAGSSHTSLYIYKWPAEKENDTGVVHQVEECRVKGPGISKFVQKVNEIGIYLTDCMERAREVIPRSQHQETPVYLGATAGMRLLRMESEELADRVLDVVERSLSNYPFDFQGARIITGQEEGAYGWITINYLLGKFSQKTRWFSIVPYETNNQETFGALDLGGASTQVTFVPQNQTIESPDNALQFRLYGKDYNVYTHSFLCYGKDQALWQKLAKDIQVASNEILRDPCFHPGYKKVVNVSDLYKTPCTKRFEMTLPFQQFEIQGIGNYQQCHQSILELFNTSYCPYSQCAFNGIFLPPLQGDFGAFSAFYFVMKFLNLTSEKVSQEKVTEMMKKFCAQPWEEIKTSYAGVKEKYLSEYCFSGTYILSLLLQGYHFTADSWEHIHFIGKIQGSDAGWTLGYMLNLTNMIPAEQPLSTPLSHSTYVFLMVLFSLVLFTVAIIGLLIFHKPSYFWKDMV
Method: (§1) Cell surface CD39 decreases with anti-CD39 treatment in tumor draining lymph nodes of hCD39KI mice. Tumor draining lymph nodes (TLDNs) (right inguinal lymph node) were also collected at the end of the C57BL/6 hCD39KI MC38 mouse study described above. Lymph nodes were dissociated in a 37° C. water bath in RPMI 1640 (Gibco, Cat. No. 11875119) containing of 0.6 mg/mL Collagenase P (Roche, Cat. No. 11213865001), 2.4 mg/mL Dispase II (Sigma, Cat. No. D4693), and 0.3 mg/mL DNAse I (Thermo Scientific, Cat. No. J62229 MB) for 30 minutes with gentle agitation. The dissociated lymph nodes were counted and 2×10^5 cells per well were plated in a 96-well polypropylene v-bottom plate. Cells were washed in PBS (Gibco, Cat. No. 14190-144) and resuspended in a PBS solution containing 1:25 Fc Block (BD, Cat. No. 564220) and 1:250 Near IR Fluorescent Reactive Dye (Invitrogen, Cat. No. L34976A) for 15 minutes in the dark. After the incubation, the cells were stained with an antibody cocktail (Table 20) and incubated for 30 minutes at 4° C. After the incubation, the cells were pelleted, supernatant removed, and 100 μL of fixation buffer (eBioscience, Cat. No. 00-8222-49) was added for 1 hour. […]

[2] = Peripheral cytokine levels in plasma (MSD); type: in vivo, mouse; details: terminal bleed, mice bearing MC38 tumors
Method: A terminal bleed of the mice bearing MC38 tumors were collected into BD Vacutainer® Heparin Tubes (BD Biosciences, Cat. No. 367871), centrifuged at 2000×g for 15 minutes, and supernatant plasma samples were collected. Cytokine levels in the plasma samples were analyzed using MSD following manufacturer's instructions. […] Data are presented as mean±SEM with a total of 11-12 mice per treatment group (FIG. 18). Statistical analyses were performed using an ANOVA with Tukey's multiple comparison test.

[3] = Body weight of hCD39KI MC38 mice; type: in vivo, mouse; details: over the course of the experiment; C57BL/6 hCD39KI MC38 mice
Method: (§2) In one experiment, C57BL/6 hCD39KI mice were inoculated with 1 million MC38 cells on day 0. When tumors reached 80 mm^3, mice were dosed intraperitoneally (i.p.) with a loading dose of 20 mg/kg anti-CD39 or isotype control antibody (vehicle: PBS), and then subsequently with 10 mg/kg anti-CD39 or isotype control antibody 2×/week (BIW). Each group consisted of 11-12 mice. […] Oxaliplatin (OXA) treatment, 5 mg/kg i.p. (vehicle: saline), was initiated the day following the anti-CD39 or isotype control loading dose and dosed 1×/week. In a similarly designed experiment, BALB/c hCD39KI mice were inoculated with 4T1 cells on day 0 and treated OXA or anti-CD39 antibody as described for the MC38 model.
(§3) Tumor volume and body weight were measured approximately twice a week (BIW) and are shown in FIG. 10A and FIG. 10B respectively, where the points represent the mean and the errors bars the standard error of the mean (SEM) of the respective metrics from each group of mice. Significance was calculated using a mixed-effects model with multiple comparisons. […] Body weight was stable over the course of the experiment indicating anti-CD39 treatment was well tolerated (FIG. 10B).

[4] = tested on: MC38 tumors; experiment: MC38 tumor volume in C57BL/6 hCD39KI mice; type: in vivo, mouse; details: anti-CD39 20 mg/kg loading then 10 mg/kg BIW i.p. with oxaliplatin 5 mg/kg i.p. 1×/week; mixed-effects model
Method: as §2, §3

[5] = target: T1, human CD39; experiment: Enzyme histochemistry of tumors and spleens from C57BL/6 hCD39KI MC38 mice; set-up: species or system mouse; details: tumors and spleens treated in vivo, end of study
Method: Tumors and spleens from C57BL/6 hCD39KI MC38 mice at the end of the study were additionally analyzed for human CD39 expression by immunohistochemistry (IHC) and evidence of anti-CD39 antibody enzymatic blocking activity by enzyme histochemistry (EHC). Briefly, frozen OCT-embedded tumor or spleen samples were sectioned at 4 um thickness, mounted on positively charged microscope slides, air dried for 15 minutes, then placed in 4% paraformaldehyde (PFA) fixative for 20 min. After fixation, the slides were washed in Tris-buffered saline and IHC was performed on an automated Leica Bond Rx platform starting with blocking of endogenous peroxidases, followed by incubation with a rabbit anti-CD39 mAb (Abcam, EPR20627), and detected with an anti-rabbit HRP polymer system followed by a diaminobenzidine (DAB) brown chromogen, hematoxylin nuclear counterstain, and then dehydrated and mounted. […] Human CD39 expression was detected in both isotype treated (FIG. 11, panel A and FIG. 12, panel A, low- and high-power magnification, respectively) and anti-CD39 treated tumors (FIG. 11, panel C and […], low- and high-power magnification, respectively), localized to vascular endothelia, infiltrating immune cells, and stromal components of the tumor microenvironment. […]

[6] = target: T2, CD39 enzymatic activity (Homo sapiens, UniProt P49961); experiment: Ex vivo peripheral white blood cell CD39 enzymatic activity; type: in vivo, mouse; details: white blood cells of 4T1 tumor-bearing hCD39KI mice, 20 μM ATP
T2 construct: from tissue; host or cells: hCD39KI mice (C57BL/6 with MC38, BALB/c with 4T1): tumours, spleen, whole blood / WBCs, tumour-draining lymph nodes
T2 sequence (P49961 1-510): T1 sequence (P49961 1-510)
Excerpt: To assay peripheral CD39 enzymatic activity, peripheral white blood cells (WBCs) were isolated from terminal blood samples of hCD39KI mice and assayed as generally described for the tumor cell suspensions. Briefly, whole blood samples were mixed with 1×Pharm Lyse red blood cell lysing solution (BD Biosciences, Cat. No. 555899). WBC pellets were then collected after washing with 1×PBS solution and stored in BamBanker cell freezing medium (Bulldog Bio, Cat. No. BB01). To perform the enzymatic inhibition assay, samples were thawed and then cells were plated at 2.5×10^4 cells per well in a 96-well plate. […] All wells were then treated with 20 μM ATP and incubated for 2 hours at room temperature. At the end of the incubation period, the 96-well plate was spun at 1000 rpm for 3 minutes and the supernatant was collected. 2× Kinase-Glo® Plus (Promega, Cat. No. V3771) was then added to the supernatants. ATP levels in the supernatants were then measured by detecting luminescence using Flexstation® 3 microplate reader. Data are presented as relative luminescence units (RLU).

[7] = tested on: immune subpopulations in tumor draining lymph nodes; experiment: Tumor draining lymph node immune subpopulation percentages; type: in vivo, mouse; details: single agent or in combination with oxaliplatin
Method: as §1

[8] = target: T2, CD39 enzymatic activity; experiment: Ex vivo intratumoral CD39 enzymatic activity (Kinase-Glo Plus); type: in vivo, mouse; details: MC38 and 4T1 tumor cell suspensions, 20 μM ATP
Method: Intratumoral and peripheral CD39 enzymatic activity was also evaluated ex vivo. Upon study completion, tumor samples obtained after sacrificing C57BL/6 hCD39KI MC38 and BALB/c hCD39KI 4T1 mice were placed in RPMI+20% FBS+250 μg/ml collagenase D (Millipore Sigma, Cat. No. 11088858001)+100 KU/ml DNAse 1 (Millipore Sigma Cat. No. D5025-150KU) and enzymatically digested using gentleMACS™ Octo Dissociator to obtain a single cell suspension. […] The cells were then treated with 20 μM ATP and incubated for an additional 30 minutes at 37° C., 5% CO2. At the end of the incubation period, the 96-well plate was spun at 1000 rpm for 3 minutes and the supernatant was collected. 2× Kinase-Glo® Plus (Promega, Cat. No. V3771) was then added to the supernatants. ATP levels in the supernatants were then measured by detecting luminescence using Flexstation® 3 microplate reader. Data are presented as relative luminescence units (RLU).

B1: ch39_mIGG2A.AAG: antibody 39 variable regions on mouse IgG2a; HC SEQ ID NO: 41, LC SEQ ID NO: 42; the anti-CD39 of Example 9 (antibody)
heavy: EVQLVESGGGLVQPGRSLKLSCLASGFTFNNYGMNWIRQAPGKGLEWVASFSSSSTYISYADTVKGRFTISRENAKNTLYLQMTSLRSEDTALYYCVRHGRYGGYGGFYFDYWGQGVMVTVSSAKTTAPSVYPLAPVCGDTTGSSVTLGCLVKGYFPEPVTLTWNSGSLSSGVHTFPAVLQSDLYTLSSSVTVTSSTWPSQSITCNVAHPASSTKVDKKIEPRGPTIKPCPPCKCPAPNAAGGPSVFIFPPKIKDVLMISLSPIVTCVVVDVSEDDPDVQISWFVNNVEVHTAQTQTHREDYNSTLRVVSALPIQHQDWMSGKEFKCKVNNKDLGAPIERTISKPKGSVRAPQVYVLPPPEEEMTKKQVTLTCMVTDFMPEDIYVEWTNNGKTELNYKNTEPVLDSDGSYFMYSKLRVEKKNWVERNSYSCSVVHEGLHNHHTTKSFSRTPGK
light: DTVLTQSPALAVSPGERVSISCRASEGVKSYMHWYQQKPGQQPKLLIYKASNLASGVPARFSGSGSGTDFTLTIDPVEADDTATYFCQQSWNDPTFGAGTKLELKRADAAPTVSIFPPSSEQLTSGGASVVCFLNNFYPKDINVKWKIDGSERQNGVLNSWTDQDSKDSTYSMSSTLTLTKDEYERHNSYTCEATHKTSTSPIVKSFNRNEC
Q: With B1 as the molecule, how does the “Human CD39 on the surface of immune subpopulations” value [1] read?
A: significant reduction; also recorded: significant decrease

Q: What about the Peripheral cytokine levels [2] of the same molecule?
A: No elevation

Q: What about the Body weight [3] of the same molecule?
A: stable

Q: What about the “Tumor volume: p for anti-CD39+saline vs. anti-CD39+OXA” value [4] of the same molecule?
A: 0.0217

Q: What about the “Tumor volume: p for isotype+OXA vs. anti-CD39+OXA” value [4] of the same molecule?
A: 0.0372

Q: And the “Lead-phosphate deposition by enzyme histochemistry (CD39 enzymatic activity)” value [5]?
A: enzymatic activity has been blocked

Q: And the “Peripheral CD39 enzymatic activity” value [6]?
A: inhibited

Q: And the Immune subpopulation percentages [7]?
A: did not result in significant changes

Q: What about the Immune subpopulation percentages ([7]; listed as anti-CD39) of the same molecule?
A: No significant changes

Q: And the “Intratumoral CD39 enzymatic activity” value [8]?
A: inhibited
